The supplement of paper PMC10567573

B1: SLC25A39 (parent)
chain: LTSDLYAPMVAGALARLGTVTVIS
B2: KLHL12 (parent)
chain: LDYTADEDGVWYSVAPMNVRRGLA

Variants of: B1
Assay: protein stability index of a GFP-peptide fusion (GPS, HEK-293T) (PSI 1-6); higher = more stable
Settings: c terminus: a fixed tail appended
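Note: lentivirally expressed fusions sorted by FACS into six bins by GFP to DsRed ratio, PSI derived from sequencing read proportions per bin multiplied by bin number.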

Protein stability index, by site and new letter:
L17: R 1.1; E 2.71; C 1.56; N 1.96; S 2.51; T 1.52; A 1.92
S24: C 3.08
V10: G 2.72; S 2.6; D 1.9; M 4.25
S3: F 3.67; N 1.56; R 2.83; Q 1.86; M 2.73
A13: Q 2.61; V 2.79
P8: M 3.46; N 1.7; L 2.02; E 3.86; A 1.5
L5: D 1.89; R 2.09; C 3.99; E 1.69; N 1.89; P 2.31; I 1
T19: V 2.87; H 1.94
T2: H 2.88; E 2.15; D 2.1; G 3.56; N 2.52; Q 2.49
L1: D 1.76; V 1.88; Q 1.84; T 1.75; E 2.24
Y6: V 2.13; R 1.47; W 3.76; P 1.98
T21: D 3.1; Q 2.95; V 2.03
D4: W 3.9; R 3.25; T 2.84; C 4.74
L14: F 3.32; C 3.43; W 5.23; S 1.69; V 2.83; N 1.69; P 2.24; D 1.83
A7: S 2.38; I 4.33; L 3.74; T 1.62; Q 2.86
G12: V 3.9; L 3.83; K 3.64
A11: D 1.65; Q 1.65; H 2.69
A15: L 1.45; G 2.69
M9: H 1.77; Q 2.57
G18: P 2.57
I23: K 2.04
V20: S 2.26; W 1.77; G 1.99

Variants of: B2
Assay: as above
Settings: c terminus: a fixed tail appended

Protein stability index, by site and new letter:
L23: T 2.19; V 1.79; D 2.46; G 2.29; Q 2.9; K 2; C 1.93; E 2.41; H 2.28; A 2.68; Y 1.99; P 2.35; R 2.82; M 2.38; F 1.83; W 1.37; I 1.74; N 2.77; S 2.66
R20: N 1.74; T 2.69; Q 1.89; W 2.05; S 2.31; Y 1.97; P 1.81; V 2.49
A24: D 1.82; I 1.88; W 2.46; Y 2.39; P 2.24; S 2.17; E 1.87; T 2.11; M 1.75; H 2.13; V 2.26; R 1.97; L 2.77; Q 2.03; F 2.2; C 1.77; K 2.35; G 2.17; N 2.25
R21: C 2.63; M 1.32; V 2.19; F 2.85; T 2.72; Y 1.47; N 1.65; G 1.78; K 1.8; W 1.71; D 1.88; P 1.8; S 1.72; I 2.04; H 1.75; L 2.93; E 2.21; Q 1.71; A 2.39
G22: D 1.79; E 2.17; P 2.21; Y 2.17; S 1.72; L 2; R 2.15; C 2.27; K 2.23; V 1.35; F 1.51; H 1.56; T 2.31; W 1.48; A 1.5; I 2.16; M 1.95; Q 2.22; N 1.62
